US20250270296A1
Where a chain is given by its changes, count along the chain named.

B1: RBD-chAb-28 (antibody, V domains shown)
VH: QVQLQQPGTELVMPGASVKMSCKASGYTFTDYYLHWMKQRPGQGLEWIGAIDSSDSYTDYNQNFKGKATLTVDESSSTAYMHLSSLTSEDSAVYYCARGKDAYDRRPWFAYWGQGTLVTVSA
VL: DIQMTQTTSSLSASLGDRVTISCSASQGIRYYLNWYQQKPDGTVKLLIYYTSNLHSGVPSRFSGSGSGTDYSLTISNLEPEDIATYYCQQYNKLPYTFGGGTKLDIK
B2: RBD-chAb-45 (antibody, V domains shown)
VH: EVQLQQSGPELVKPGASVKISCKTSGYTFTEYTIYWVKQSLGKSLEWIGGNNPNNDDTTYKQFFKGKATLTVDKSSSTAYMELRSLTSEDSAVYYCARDGYPYYYALDFWGQGTSVTVSS
VL: DILMTQSQKFMSTSVGDRVSVTCKSSQNVGTNVAWYQQKPGQSPKALIYSASYRYSGVPDHFTGSGSGTDFTLTISNVQSADLAEYFCQQYNNYPWTFGGGTKLDIK
B3: RBD-chAb-51 (antibody, V domains shown)
VH: B2 VH with V18A, I34M, L41H, N51I, D56G, K61N, F63T, Y103F, F109Y, T114I
VL: DIVMTQSQKFMSTSVGDRVSVTCKARQIVGTNVAWYQQKPGQSPKALIYSASYRYSGVPDRFTGSGSGTDFTLTITNVHSEDLAEFFCHQYNSYPWTFGGGTKLDIK
B4: RBD-chAb-1 (antibody, V domains shown)
VH: EVQLQQSGPQLVRPGASMKISCKASGYSFTTYWMHWVKQRPGQGLQWIGMIDPSDSETRLNQKFKDKATLTVDKSSSTAYMQLSSPTSEDSAVYYCARDFDYDRTMDYWGQGTSVTVSS
VL: DIVMSQSPSSLAVSVGEKVTMSCKSSQSLLFSSSQKNYLAWYQQKAGQSPKLLIFWASTRESGVPDRFTGSGSGTDFTLTISSVKAEDLAIYYCKQYYKYPLTFGAGTKLDIK
B5: RBD-chAb-15 (antibody, V domains shown)
VH: EVQLEESGPGLVQPSQSLSITCTVSDFSLTTYGVHWVRQSPGKGLEWLGVIWSGGSTDYNAAFISRLSISKDNSKSQVFFKMNSLQTNDTAIYYCARMGDGYYVGAMDYWGQGTSVTVSS
VL: DIQLTQSPAILSVSPGERVSFSCRASQSIGTSIHWYQQRTNGSPRHLIKYASESISGIPSRFSGSGSGTDFTLTINGVESEDIADYYCQQGHNWPLTFGAGTKLDIK

What follows are binders tested on S protein of SARS-CoV-2 variant B.1.351 (SA, Beta), full length, on pseudovirus (SARS-CoV-2), P0DTC2 (assay: cell-based or functional assay).

Binder | SARS-CoV2 pseudovirus IC50
B1 | 16.5 ng/mL
B2 | 2.68 ng/mL
B3 | 1.26 ng/mL
B4 | 46.7 ng/mL
B5 | 30.1 ng/mL

The binders below were run on S protein of SARS-CoV-2 variant B.1.1.7 (UK, Alpha), full length, on pseudovirus or authentic virus (SARS-CoV-2), P0DTC2 (assay: cell-based or functional assay).

Binder | PRNT50 | SARS-CoV2 pseudovirus IC50
B1 | 58.5 ng/mL | 11.3 ng/mL
B2 | 5.29 ng/mL | 2.06 ng/mL
B3 | 6.39 ng/mL | 3.07 ng/mL
B4 |  | 33.5 ng/mL
B5 | 58.1 ng/mL | 39.7 ng/mL

The binders below were run on S protein of SARS-CoV-2 variant P1 (Brazil, Gamma), full length, on pseudovirus or authentic virus (SARS-CoV-2), P0DTC2 (assay: cell-based or functional assay).

Binder | PRNT50 | SARS-CoV2 pseudovirus IC50
B1 | 58.3 ng/mL | 4.18 ng/mL
B2 | 3.26 ng/mL | 0.76 ng/mL
B3 | 2.92 ng/mL | 0.7 ng/mL
B4 |  | 17.1 ng/mL
B5 | 50.9 ng/mL | 7.18 ng/mL
